According to patent US20260217793A1 (Chugai, published 2026):

Key:
Experiment in all cases: SPR
[1] = target: T1, FcγRIIaR (human, UniProt P12318 34-217)
T1 sequence (looked up): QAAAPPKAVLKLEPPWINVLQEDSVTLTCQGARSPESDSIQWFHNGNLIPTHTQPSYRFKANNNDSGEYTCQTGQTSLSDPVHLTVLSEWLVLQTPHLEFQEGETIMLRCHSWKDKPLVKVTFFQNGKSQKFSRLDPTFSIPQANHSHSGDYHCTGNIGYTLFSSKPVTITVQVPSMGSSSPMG

[2] = target: T2, FcγRIIaH (human, UniProt P12318 34-217)
T2 sequence (looked up): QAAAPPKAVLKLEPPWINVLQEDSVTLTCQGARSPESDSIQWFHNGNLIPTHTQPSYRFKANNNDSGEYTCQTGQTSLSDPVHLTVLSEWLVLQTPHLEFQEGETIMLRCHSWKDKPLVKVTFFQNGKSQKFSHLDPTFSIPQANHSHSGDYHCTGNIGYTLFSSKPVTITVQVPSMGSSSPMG

[3] = target: T3, FcγRIIb extracellular domain with C-terminal His tag (human, UniProt P31994 43-217)
T3 sequence (looked up): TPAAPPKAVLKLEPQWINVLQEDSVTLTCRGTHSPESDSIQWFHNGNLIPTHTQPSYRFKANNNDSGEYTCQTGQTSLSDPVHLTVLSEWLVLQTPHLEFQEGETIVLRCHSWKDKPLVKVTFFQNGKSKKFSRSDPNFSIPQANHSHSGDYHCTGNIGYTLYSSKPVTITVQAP

[4] = target: T3, FcγRIIb extracellular domain with …; remark: listed apart in the source
[5] = target: T3, FcγRIIb extracellular domain with …; remark: listed apart in the source
[6] = target: T4, FcγRIIa type H extracellular domain with C-terminal His tag (human, UniProt P12318 34-217)
T4 sequence (looked up): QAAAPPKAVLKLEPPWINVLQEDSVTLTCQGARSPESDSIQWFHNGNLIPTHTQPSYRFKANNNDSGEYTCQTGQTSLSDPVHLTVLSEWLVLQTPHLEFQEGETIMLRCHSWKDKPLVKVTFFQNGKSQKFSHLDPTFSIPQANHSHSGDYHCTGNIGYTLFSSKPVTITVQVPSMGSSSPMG

[7] = target: FcγRIIIa type V extracellular domain with C-terminal His tag (human, UniProt P08637 17-208)
[8] = target: human FcγRIIIa type V (Val158) extracellular domain with C-terminal His tag (human, UniProt P08637 17-208)
[9] = target: T5, human FcγRIIa type H (His131) extracellular domain with C-terminal His tag (human, UniProt P12318 34-217)
T5 sequence (looked up): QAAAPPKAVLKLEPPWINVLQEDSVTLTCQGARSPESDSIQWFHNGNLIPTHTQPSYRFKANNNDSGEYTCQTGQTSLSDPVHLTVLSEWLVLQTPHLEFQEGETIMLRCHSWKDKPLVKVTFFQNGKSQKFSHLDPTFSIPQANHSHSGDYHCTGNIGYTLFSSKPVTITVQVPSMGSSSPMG

[10] = target: T6, human FcγRIIb extracellular domain with C-terminal His tag (human, UniProt P31994 43-217)
T6 sequence (looked up): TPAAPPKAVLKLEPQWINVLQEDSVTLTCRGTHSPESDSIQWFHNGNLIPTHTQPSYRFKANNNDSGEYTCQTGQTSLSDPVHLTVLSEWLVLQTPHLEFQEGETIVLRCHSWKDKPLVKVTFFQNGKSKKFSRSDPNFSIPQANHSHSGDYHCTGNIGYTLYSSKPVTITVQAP

[11] = target: human FcγRIa extracellular domain with C-terminal His tag (human, UniProt P12314 16-292)
[12] = target: T7, human FcγRIIa type R (Arg131) extracellular domain with C-terminal His tag (human, UniProt P12318 34-217)
T7 sequence (looked up): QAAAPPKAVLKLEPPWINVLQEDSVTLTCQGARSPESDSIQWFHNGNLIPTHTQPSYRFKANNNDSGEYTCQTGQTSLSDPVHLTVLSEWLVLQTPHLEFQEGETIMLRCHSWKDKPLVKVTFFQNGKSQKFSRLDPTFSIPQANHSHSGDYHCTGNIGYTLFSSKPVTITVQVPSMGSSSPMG

[13] = target: T6, human FcγRIIb extracellular domain with …; remark: listed apart in the source
[14] = target: T7, human FcγRIIa type R (Arg131) …; remark: listed apart in the source
[15] = target: T6, human FcγRIIb extracellular domain with …; remark: listed apart in the source
[16] = target: T6, human FcγRIIb extracellular domain with …; remark: listed apart in the source
[17] = target: T8, mouse FcγRIII (mouse, UniProt P08508 31-215)
T8 sequence (looked up): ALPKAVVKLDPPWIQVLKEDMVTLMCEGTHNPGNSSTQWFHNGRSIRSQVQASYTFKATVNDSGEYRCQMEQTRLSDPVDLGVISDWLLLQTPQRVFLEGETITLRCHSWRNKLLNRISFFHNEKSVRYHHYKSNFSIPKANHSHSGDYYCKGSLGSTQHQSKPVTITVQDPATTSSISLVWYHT

Chain of human FcγRIIIa type V (Val158) extracellular domain with C-terminal His tag (P08637 17-208 F176V): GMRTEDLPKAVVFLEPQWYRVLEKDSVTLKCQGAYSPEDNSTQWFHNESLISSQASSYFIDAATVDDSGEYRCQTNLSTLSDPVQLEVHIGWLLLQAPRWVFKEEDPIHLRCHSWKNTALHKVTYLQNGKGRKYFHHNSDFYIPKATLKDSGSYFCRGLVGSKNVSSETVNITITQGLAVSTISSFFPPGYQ
Chain of FcγRIIIa type V extracellular domain with C-terminal His tag (P08637 17-208 F176V): as above
Chain of human FcγRIa extracellular domain with C-terminal His tag (P12314 16-292): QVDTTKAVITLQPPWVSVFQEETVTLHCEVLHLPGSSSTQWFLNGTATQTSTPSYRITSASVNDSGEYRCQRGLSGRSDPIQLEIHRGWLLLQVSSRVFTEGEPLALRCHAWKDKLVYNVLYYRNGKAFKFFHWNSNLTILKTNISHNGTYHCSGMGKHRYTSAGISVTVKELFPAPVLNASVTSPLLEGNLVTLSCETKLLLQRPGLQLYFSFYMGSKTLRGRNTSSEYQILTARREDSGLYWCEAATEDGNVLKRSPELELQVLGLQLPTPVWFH

B1: IL6R-BP144/IL6R-L (antibody, human IgG1, kappa)
heavy: QVQLQESGPGLVKPSETLSLTCAVSGHSISHDHAWSWVRQPPGEGLEWIGFISYSGITNYNPSLQGRVTISRDNSKNTLYLQMNSLRAEDTAVYYCARSLARTTAMDYWGEGTLVTVSSASTKGPSVFPLAPSSKSTSGGTAALGCLVKDYFPEPVTVSWNSGALTSGVHTFPAVLQSSGLYSLSSVVTVPSSSLGTQTYICNVNHKPSNTKVDKKVEPKSCDKTHTCPPCPAPELLGDDSVFLFPPKPKDTLMISRTPEVTCVVVDVSHEDPEVKFNWYVDGVEVHNAKTKPREEQYNSTYRVVSVLTVLHQDWLNGKEYKCKVSNAALPAPIEKTISKAKGQPREPQVYTLPPSRDELTKNQVSLTCLVKGFYPSDIAVEWESNGQPENNYKTTPPVLDSDGSFFLYSKLTVDKSRWQQGNVFSCSVMHEALHNHYTQESLSLSP
light: not shown
[1]
  Kd: 5.9 µM

B2: IL6R-BP146/IL6R-L (antibody, human IgG1, kappa)
heavy: QVQLQESGPGLVKPSETLSLTCAVSGHSISHDHAWSWVRQPPGEGLEWIGFISYSGITNYNPSLQGRVTISRDNSKNTLYLQMNSLRAEDTAVYYCARSLARTTAMDYWGEGTLVTVSSASTKGPSVFPLAPSSKSTSGGTAALGCLVKDYFPEPVTVSWNSGALTSGVHTFPAVLQSSGLYSLSSVVTVPSSSLGTQTYICNVNHKPSNTKVDKKVEPKSCDKTHTCPPCPAPEYLGDDSVFLFPPKPKDTLMISRTPEVTCVVVDVSHEDPEVKFNWYVDGVEVHNAKTKPREEQYNSTYRVVSVLTVLHQDWLNGKEYKCKVSNAALPAPIEKTISKAKGQPREPQVYTLPPSRDELTKNQVSLTCLVKGFYPSDIAVEWESNGQPENNYKTTPPVLDSDGSFFLYSKLTVDKSRWQQGNVFSCSVMHEALHNHYTQESLSLSP
light: not shown
[2]
  Kd: 16 µM

B3: IL6R-BP198/IL6R-L (antibody, human IgG1, kappa)
heavy: QVQLQESGPGLVKPSETLSLTCAVSGHSISHDHAWSWVRQPPGEGLEWIGFISYSGITNYNPSLQGRVTISRDNSKNTLYLQMNSLRAEDTAVYYCARSLARTTAMDYWGEGTLVTVSSASTKGPSVFPLAPSSKSTSGGTAALGCLVKDYFPEPVTVSWNSGALTSGVHTFPAVLQSSGLYSLSSVVTVPSSSLGTQTYICNVNHKPSNTKVDKKVEPKSCDKTHTCPPCPAPDYLGGDSVFLFPPKPKDTLMISRTPEVTCVVVDVSDEDGEVKFNWYVDGVEVHNAKTKPREEQYNSTYRVVSVLTVLHQDWLNGKEYKCKVSNAALPKPIEKTISKAKGQPREPQVYTLPPSRDELTKNQVSLTCLVKGFYPSDIAVEWESNGQPENNYKTTPPVLDSDGSFFLYSKLTVDKSRWQQGNVFSCSVMHEALHNHYTQESLSLSP
light: not shown
[3]
  KD (IIaH)/KD (IIb): 102 ratio
[4]
  KD (IIaR)/KD (IIb): 11 ratio
[5]
  KD (IIb) of parent polypeptide/KD (IIb) of altered polypeptide: 15.7 ratio

B4: IL6R-BP245/IL6R-L (antibody, human IgG1, kappa)
heavy: QVQLQESGPGLVKPSETLSLTCAVSGHSISHDHAWSWVRQPPGEGLEWIGFISYSGITNYNPSLQGRVTISRDNSKNTLYLQMNSLRAEDTAVYYCARSLARTTAMDYWGEGTLVTVSSASTKGPSVFPLAPSSKSTSGGTAALGCLVKDYFPEPVTVSWNSGALTSGVHTFPAVLQSSGLYSLSSVVTVPSSSLGTQTYICNVNHKPSNTKVDKKVEPKSCDKTHTCPPCPAPDLLGDDSVFLFPPKPKDTLMISRTPEVTCVVVDVQDEDGEVKFNWYVDGVEVHNAKTKPREEQDNSTYRVVSVLTVLHQDWLNGKEYKCKVSNDALPRPIEKTISKAKGQPREPQVYTLPPSRDELTKNQVSLTCLVKGFYPSDIAVEWESNGQPENNYKTTPPVLDSDGSFFLYSKLTVDKSRWQQGNVFSCSVMHEALHNHYTQESLSLSP
light: not shown
[6]
  Kd: 23 µM

B5: IL6R-BP248/IL6R-L (antibody, human IgG1, kappa)
heavy: QVQLQESGPGLVKPSETLSLTCAVSGHSISHDHAWSWVRQPPGEGLEWIGFISYSGITNYNPSLQGRVTISRDNSKNTLYLQMNSLRAEDTAVYYCARSLARTTAMDYWGEGTLVTVSSASTKGPSVFPLAPSSKSTSGGTAALGCLVKDYFPEPVTVSWNSGALTSGVHTFPAVLQSSGLYSLSSVVTVPSSSLGTQTYICNVNHKPSNTKVDKKVEPKSCDKTHTCPPCPAPDLLGDDSVFLFPPKPKDTLMISRTPEVTCVVVDVSDEDGEVKFNWYVDGVEVHNAKTKPREEQDNSTYRVVSVLTVLHQDWLNGKEYKCKVSNAALPRPIEKTISKAKGQPREPQVYTLPPSRDELTKNQVSLTCLVKGFYPSDIAVEWESNGQPENNYKTTPPVLDSDGSFFLYSKLTVDKSRWQQGNVFSCSVMHEALHNHYTQESLSLSP
light: not shown
[7]
  Kd: 4.4 mM

B6: IL6R-BP568/IL6R-L (antibody, human IgG1, kappa)
heavy: QVQLQESGPGLVKPSETLSLTCAVSGHSISHDHAWSWVRQPPGEGLEWIGFISYSGITNYNPSLQGRVTISRDNSKNTLYLQMNSLRAEDTAVYYCARSLARTTAMDYWGEGTLVTVSSASTKGPSVFPLAPSSKSTSGGTAALGCLVKDYFPEPVTVSWNSGALTSGVHTFPAVLQSSGLYSLSSVVTVPSSSLGTQTYICNVNHKPSNTKVDKKVEPKSCDKTHTCPPCPAPDLLGGDSVFLFPPKPKDTLMISRTPEVTCVVIDVAEEDGEVKFNWYVDGVEVHNAKTKPREEQYNSTYRVVSVLTVLHQDWLNGKEYKCKVSNKALPAPIEKTISKAKGQPREPQVYTLPPSRDELTKNQVSLTCLVKGFYPSDIAVEWESNGQPENNYKTTPPVLDSDGSFFLYSKLTVDKSRWQQGNVFSCSVMHEALHNHYTQESLSLSP
light: not shown
[8]
  Kd: 25 µM
[9]
  Kd: 11 µM
[10]
  KD (IIaR)/KD (IIb): 46.1
[11]
  Kd: 0.19 nM
[12]
  Kd: 680 nM
[13]
  Kd: 15 nM
[14]
  KD (IIaR) of parent polypeptide/KD (IIaR) of altered polypeptide: 1.6
[15]
  KD (IIb) of parent polypeptide/KD (IIb) of altered polypeptide: 211
[16]
  KD (IIaH)/KD (IIb): 748

B7: VH3/L(WT)-mIgG1 (antibody)
heavy: QVQLQESGPGLVKPSETLSLTCAVSGHSISHDHAWSWVRQPPGEGLEWIGFISYSGITNYNPSLQGRVTISRDNSKNTLYLQMNSLRAEDTAVYYCARSLARTTAMDYWGEGTLVTVSSAKTTPPSVYPLAPGSAAQTNSMVTLGCLVKGYFPEPVTVTWNSGSLSSGVHTFPAVLQSDLYTLSSSVTVPSSTWPSETVTCNVAHPASSTKVDKKIVPRDCGCKPCICTVPEVSSVFIFPPKPKDVLTITLTPKVTCVVVDISKDDPEVQFSWFVDDVEVHTAQTQPREEQFNSTFRSVSELPIMHQDWLNGKEFKCRVNSAAFPAPIEKTISKTKGRPKAPQVYTIPPPKEQMAKDKVSLTCMITDFFPEDITVEWQWNGQPAENYKNTQPIMDTDGSYFVYSKLNVQKSNWEAGNTFTCSVLHEGLHNHHTEKSLSHSPGK
light: not shown
[17]
  Kd: 282 nM
